Experimental data: publication PMC6155069, “Cryo-EM analysis of the T3S injectisome reveals the structure of the needle and open secretin” (Nature Communications, 2018)

B1: PrgI (needle protein), isolated needle filament (natural protein)
chain: MATPWSGYLDDVSAKFDTGVDNLQTQVTEALDKLAAKPSDPALLAAYQSKLSEYNLYRNAQSNTVKVFKDIDAAIIQNFR
notes: PrgI, needle protein of the Salmonella Typhimurium SPI-1 type III secretion system; the model covers residues 3-80 (lacks only the first two N-terminal residues; C-terminal residue Arg80); Helical polymer of many copies; also called the needle; PrgI_(3–80); source: non-flagellated ΔPrgI Salmonella Typhimurium complemented with PrgI and hilA on pBAD plasmid; filaments removed by vigorous stirring, …
B2: PrgH (inner membrane ring protein) in the purified needle complex (natural protein)
chain: METSKEKTITSPGPYIVRLLNSSLNGCEFPLLTGRTLFVVGQSDALTASGQLPDIPADSFFIPLDHGGVNFEIQVDTDATEIILHELKEGNSESRSVQLNTPIQVGELLILIRPESEPWVPEQPEKLETSAKKNEPRFKNGIVAALAGFFILGIGTVGTLWILNSPQRQAAELDSLLGQEKERFQVLPGRDKMLYVAAQNERDTLWARQVLARGDYDKNARVINENEENKRISIWLDTYYPQLAYYRIHFDEPRKPVFWLSRQRNTMSKKELEVLSQKLRALMPYADSVNITLMDDVTAAGQAEAGLKQQALPYSRRNHKGGVTFVIQGALDDVEILRARQFVDSYYRTWGGRYVQFAIELKDDWLKGRSFQYGAEGYIKMSPGHWYFPSPL
notes: PrgH, Salmonella Typhimurium SPI-1 type III secretion system, native protein in the needle complex; Native protein stood in the sample; only 171-364 was modelled; also called PrgH_(171–364); IM rings; source: endogenous, ΔflhD Salmonella SL1344 with HilA on a pBAD plasmid; needle complex purified (LDAO lysis, centrifugation, CsCl gradient, Superose 6); copies: 24
B3: PrgK (inner membrane ring protein) in the purified needle complex (natural protein)
chain: CKDKDLLKGLDQEQANEVIAVLQMHNIEANKIDSGKLGYSITVAEPDFTAAVYWIKTYQLPPRPRVEIAQMFPADSLVSSPRAEKARLYSAIEQRLEQSLQTMEGVLSARVHISYDIDAGENGRPPKPVHLSALAVYERGSPLAHQISDIKRFLKNSFADVDYDNISVVLSERSDAQLQAPGTPVKRNSFATSWIVLIILLSVMSAGFGVWYYKNHYARNKKGITADDKAKSSNE
notes: PrgK, Salmonella Typhimurium SPI-1 type III secretion system, native protein in the needle complex; Native protein stood in the sample; only 20-203 was modelled; also called PrgK_(20–203); IM rings; source: endogenous, ΔflhD Salmonella SL1344 with HilA on a pBAD plasmid; needle complex purified (LDAO lysis, centrifugation, CsCl gradient, Superose 6); copies: 24
B4: InvG (outer membrane secretin) in the purified needle complex (natural protein)
chain: SEKIPVTGSGFVAKDDSLRTFFDAMALQLKEPVIVSKMAARKKITGNFEFHDPNALLEKLSLQLGLIWYFDGQAIYIYDASEMRNAVVSLRNVSLNEFNNFLKRSGLYNKNYPLRGDNRKGTFYVSGPPVYVDMVVNAATMMDKQNDGIELGRQKIGVMRLNNTFVGDRTYNLRDQKMVIPGIATAIERLLQGEEQPLGNIVSSEPPAMPAFSANGEKGKAANYAGGMSLQEALKQNAAAGNIKIVAYPDTNSLLVKGTAEQVHFIEMLVKALDVAKRHVELSLWIVDLNKSDLERLGTSWSGSITIGDKLGVSLNQSSISTLDGSRFIAAVNALEEKKQATVVSRPVLLTQENVPAIFDNNRTFYTKLIGERNVALEHVTYGTMIRVLPRFSADGQIEMSLDIEDGNDKTPQSDTTTSVDALPEVGRTLISTIARVPHGKSLLVGGYTRDANTDTVQSIPFLGKLPLIGSLFRYSSKNKSNVVRVFMIEPKEIVDPLTPDASESVNNILKQSGAWSGDDKLQKWVRVYLDRGQEAIK
notes: InvG, secretin of the Salmonella Typhimurium SPI-1 type III secretion system, native protein in the needle complex; the final model covers residues 34-557 (N3 domain loop 228-251 disordered); Native protein stood in the sample; 34-557 was modelled (core 176-557 at 3.9 Å); also called InvG_(34–557); InvG_(176–557); source: endogenous, ΔflhD Salmonella SL1344 with HilA on a pBAD plasmid; needle …
B5: PrgI (needle protein) in the purified needle complex (natural protein, UniProt P41784 1-80, looked up)
chain: B1 chain
notes: PrgI, needle protein of the Salmonella Typhimurium SPI-1 type III secretion system, as part of the native needle complex; Not resolved at high resolution inside the needle complex; the model of the isolated needle was fitted into the C1 map; also called the needle; needle filament; source: endogenous, ΔflhD Salmonella SL1344 with HilA on a pBAD plasmid; needle complex purified (LDAO lysis, …)

How the values were obtained:
[1] = target: the molecule itself; experiment: cryo-EM structure; isolated needle filaments, helical reconstruction in Relion, 3.3 Å (helical rise 4.33 Å, turn 63.34°), de novo model
[2] = target: the molecule itself; experiment: cryo-EM structure; purified needle complex; symmetrised reconstructions with atomic models: C24 IM rings 3.6 Å; signal subtraction and focussed refinement of the secretin with C15, 4.1 Å (whole) and 3.9 Å (core)
[3] = target: B4; experiment: cryo-EM structure; purified needle complex; unsymmetrised C1 reconstruction, 7.4 Å; molecular envelope, needle model fitted with Chimera; conditions: both partners purified
[4] = target: B2; experiment: cryo-EM structure; purified needle complex; symmetrised reconstructions with atomic models: C24 IM rings 3.6 Å; signal subtraction and focussed refinement of the secretin with C15, 4.1 Å (whole) and 3.9 Å (core); conditions: both partners purified

| Binder | binding result [1] | stoichiometry N [2] | binding result [3] | binding result [4] |
| --- | --- | --- | --- | --- |
| B1 | binds | – | – | – |
| B2 | – | 24 | binds | – |
| B3 | – | 24 | – | binds |
| B4 | – | 15 | – | – |
| B5 | – | – | binds | – |
